B1: HC-18/LC-18 (Ab18) (antibody, IgG1, V domains shown)
VH: EVQLQQYGAELGKPGTSVRLSCKVSGYNIRNTYIHWVNQRPGEGLEWIGRIDPTNGNTISAEKFKTKATLTADTSSHTAYLQFSQLKSDDTAIYFCALNYEGYADYWGQGVMVTGSS
VL: DIQMTQSPSFLSASVGDRVTINCKASQNINKYLNWYQQKVGEAPKRLIFKTNSLQTGIPSRFSGSGSGTDYTLTISSLQTEDVATYFCFQYNIGYTFGAGTKVELK
notes: From rat immunization/hybridoma; purified IgG in BLI; also called 018
B2: HC-17/LC-17 (Ab17) (antibody, IgG1, V domains shown)
VH: QIQLVQSGPELRKPGESVKISCKASGYTFTDYAMYWVKQAPGKGLKWMGWINTYTGKPTYADDFKGRFVFSLEASANTANLQISNLKNEDTATYFCARARGLVDDYVMDAWGQGTSVTVSS
VL: SYELIQPPSASVTLGNTVSLTCVGDELSKRYAQWYQQKPDKTIVSVIYKDSERPSGISDRFSGSSSGTTATLTIHGTLAEDEADYYCLSTYSDDNLPVFGGGTKLTVL
notes: From rat immunization/hybridoma; purified IgG in BLI; also called 017
B3: HC-2/LC-2 (Ab2) (antibody, IgG1, V domains shown)
VH: QVQLVQSGAAVKKPGESLKISCKGSGYRFTTYWIGWVRQMPGKGLEWMGIIYPGDSDTRYSPSFQGQVTISAGKSISTAYLQWSSLKASDTAMYYCARHGRGYNGYEGAFDIWGQGTMVTVSS
VL: DIQLTQSPSSLSASVGDRVTITCRASQGIRTDLGWYQQKPGKAPKLLIYDASSLESGVPSRFSGSGSGTDFTLTISSLQPEDFATYYCQQFNSYPLTFGGGTKVEIK
notes: Purified IgG; also called 002
B4: HC-6/LC-6 (Ab6) (antibody, IgG1, V domains shown)
VH: B3 VH
VL: AIRMTQSPSSLSASVGDRVIIACRASQGIGGALAWYQQKPGNAPKVLVYDASTLESGVPSRFSGGGSGTDFTLTISSLQPEDFATYYCQQFNSYPLTFGGGTKLEIK
notes: Purified IgG; also called 006
B5: HC-10/LC-10 (Ab10) (antibody, IgG1, V domains shown)
VH: B3 VH
VL: NIQMTQSPSSLSTSVGDRVTITCRASQGIGTSLAWYQQKPGKPPKLLIYDASSLESGVPSRLSGSGSGTDFTLTISSLQPEDFATYYCQQSNSYPITFGQGTRLEIK
notes: Purified IgG; also called 010
B6: HC-11/LC-11 (Ab11) (antibody, IgG1, V domains shown)
VH: B3 VH
VL: AIQLTQSPSSLSASVGDRVTITCRASQSIGDYLTWYQQKPGKAPKVLIYGASSLQSGVPPRFSGSGSGTDFTLTVSSLQPEDFATYYCQQLNSYPLTFGGGTKLEIK
notes: Purified IgG; also called 011
B7: HC-9/LC-9 (Ab9) (antibody, IgG1, V domains shown)
VH: B3 VH
VL: B3 VL with D1A, Q3R, L4M, R24Q, T31N, S53N, S56T, L73F, F83I, V104L
notes: Purified IgG; also called 009
B8: HC-8/LC-8 (Ab8) (antibody, IgG1, V domains shown)
VH: B3 VH
VL: DIQMTQSPSSLSASVGDRVTITCRASQGISSALAWYQQKAGKAPKVLISDASSLESGVPSRFSGSGSGTDFTLSISSLQPEDFATYYCQQFNGYPLTFGGGTKVDIK
notes: Purified IgG; also called 008
B9: HC-16/LC-16 (Ab16) (antibody, IgG1, V domains shown)
VH: B3 VH
VL: B3 VL with D1A, R30T, T31S, D32A, G34A, Q38E, K45N, S67Y, F91L, E105D
notes: Purified IgG; also called 016
B10: HC-3/LC-3 (Ab3) (antibody, IgG1, V domains shown)
VH: B3 VH
VL: B3 VL with D1A, Q3R, L4M, T31N, G34A, A43T
notes: Purified IgG; also called 003
B11: HC-4/LC-4 (Ab4) (antibody, IgG1, V domains shown)
VH: B3 VH
VL: B3 VL with D1A, L4M, T31N, E105D
notes: Purified IgG; also called 004
B12: HC-13/LC-13 (Ab13) (antibody, IgG1, V domains shown)
VH: B3 VH
VL: B3 VL with Q3V, L4M, T31N, V104L
notes: Purified IgG; also called 013
B13: HC-5/LC-5 (Ab5) (antibody, IgG1, V domains shown)
VH: B3 VH
VL: NIQMTQSPSSLSASVGDRVTITCRASQAISDYLAWFQQKPGKAPKLLIYDASNLETGVPSRFSGSGSGTDFTLTISSLQPEDFATYYCQQLNSYPLTFGGGTKVEIK
notes: Purified IgG; also called 005
B14: HC-7/LC-7 (Ab7) (antibody, IgG1, V domains shown)
VH: B3 VH
VL: B3 VL with Q3A, L4M, S9P, S14F, R30I, T31S, D32S, G34A, S76R, V104L
notes: Purified IgG; also called 007
B15: HC-12/LC-12 (Ab12) (antibody, IgG1, V domains shown)
VH: B3 VH
VL: B3 VL with I29V, T31S, D32T, G34A, S53I, S93G, G100Q, K103R, V104L
notes: Purified IgG; also called 012
B16: HC-14/LC-14 (Ab14) (antibody, IgG1, V domains shown)
VH: B3 VH
VL: B3 VL with R30S, T31S, D32F, G34A, S53T, E55Q, G66A, F91L, S93G
notes: Purified IgG; also called 014
B17: HC-15/LC-15 (Ab15) (antibody, IgG1, V domains shown)
VH: B3 VH
VL: AIQLTQSPSSLSASVGDRVTITCRASQGIGSALAWYQQKPGIGPKLLIYDASTLESGVPARFSGSGSRTDFTLTITSLQPEDFATYYCQQFNGYPLTFGGGTKLEIK
notes: Purified IgG; also called 015

Where a chain is given by its changes, count along the chain named.

The target in the first assay is T1, purified rhesus CD117 ectodomain (rhesus, UniProt F6V858 26-524).
T1 construct: extracellular domain; also called rhesus antigen
Nature of the assay: BLI, purified IgG on sensor, soluble rhesus ectodomain; apparent monovalent. Background: In BLI a coated tip is dipped into the sample, and binding shifts an interference pattern.
What is called koff is the rate constant with which the complex falls apart. The kon is a measure of how fast the partners come together. For B1, the Kd amounted to 53.8 nM, the koff amounted to 0.0119 s⁻¹ and the kon was found to be 221000 M⁻¹ s⁻¹.
On to B2, for which the Kd stood at 0.562 nM, the koff is 0.000173 s⁻¹ and the kon turned out to be 307000 M⁻¹ s⁻¹.

In a further assay the target is T2, purified human CD117 ectodomain (R&D Systems #332-SR) (human, UniProt P10721 26-524).
T2 construct: extracellular domain; Bought protein; also called c-kit; purified recombinant human CD117 ectodomain
T2 sequence (P10721 26-524): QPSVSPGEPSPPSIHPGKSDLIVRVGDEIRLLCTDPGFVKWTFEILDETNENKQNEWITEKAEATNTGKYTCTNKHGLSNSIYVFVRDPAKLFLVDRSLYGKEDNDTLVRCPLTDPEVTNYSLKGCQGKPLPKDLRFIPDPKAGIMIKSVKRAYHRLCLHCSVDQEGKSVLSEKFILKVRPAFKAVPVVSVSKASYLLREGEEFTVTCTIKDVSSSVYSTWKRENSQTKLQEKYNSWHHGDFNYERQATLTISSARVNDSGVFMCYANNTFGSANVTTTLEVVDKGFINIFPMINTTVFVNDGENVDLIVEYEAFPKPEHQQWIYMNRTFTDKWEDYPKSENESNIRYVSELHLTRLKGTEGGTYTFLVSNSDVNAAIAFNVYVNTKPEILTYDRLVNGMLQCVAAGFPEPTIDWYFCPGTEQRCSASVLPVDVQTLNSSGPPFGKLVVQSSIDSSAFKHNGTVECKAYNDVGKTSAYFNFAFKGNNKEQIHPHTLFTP
Briefly: BLI, purified IgG on sensor, soluble ectodomain; apparent monovalent.
On to B3, for which the Kd was found to be 0.729 nM, the koff amounted to 0.00027 s⁻¹ and the kon stood at 370000 M⁻¹ s⁻¹.
The like results for B4 were, in that order, 3.72 nM, 0.00117 s⁻¹ and 315000 M⁻¹ s⁻¹.
In the same order, the values of B5 are 1.68 nM, 0.000585 s⁻¹ and 348000 M⁻¹ s⁻¹.
The like results for B6 were, in that order, 1.41 nM, 0.000474 s⁻¹ and 336000 M⁻¹ s⁻¹.
For the molecule B7, the Kd turned out to be 1.51 nM, the koff is 0.000427 s⁻¹ and the kon turned out to be 283000 M⁻¹ s⁻¹.
The like results for B8 were, in that order, 0.908 nM, 0.000264 s⁻¹ and 290000 M⁻¹ s⁻¹.
The like results for B9 were, in that order, 2.93 nM, 0.000949 s⁻¹ and 324000 M⁻¹ s⁻¹.
In the same order, the values of B10 are 1.02 nM, 0.000352 s⁻¹ and 346000 M⁻¹ s⁻¹.
With B11, the Kd was 1.18 nM, the koff amounted to 0.000405 s⁻¹ and the kon turned out to be 345000 M⁻¹ s⁻¹.
The like results for B12 were, in that order, 1.55 nM, 0.000488 s⁻¹ and 314000 M⁻¹ s⁻¹.
The like results for B13 were, in that order, 1.21 nM, 0.000461 s⁻¹ and 380000 M⁻¹ s⁻¹.
In the same order, the values of B14 are 0.99 nM, 0.000272 s⁻¹ and 275000 M⁻¹ s⁻¹.
Turning to B15, the Kd is 0.911 nM, the koff was determined as 0.000268 s⁻¹ and the kon turned out to be 294000 M⁻¹ s⁻¹.
Turning to B16, the Kd amounted to 2.03 nM, the koff amounted to 0.000577 s⁻¹ and the kon worked out at 284000 M⁻¹ s⁻¹.
The like results for B17 were, in that order, 0.979 nM, 0.00026 s⁻¹ and 265000 M⁻¹ s⁻¹.
The like results for B1 were, in that order, 22.2 nM, 0.00491 s⁻¹ and 221000 M⁻¹ s⁻¹.
In the same order, the values of B2 are 0.672 nM, 0.000306 s⁻¹ and 456000 M⁻¹ s⁻¹.

For the origin of these results see US20240360238A1 (MAGENTA THERAPEUTICS, published 2024).
